Experimental data taken from patent publication US20170342349A1, “STABILIZED ENZYME COMPOSITIONS” (NOVOZYMES A/S, priority 2014, published 2017).

Experiments:
[1] = biological target: TY145 (SEQ ID NO 3) variant S173P + S175P + F180Y + L184F; test: Ki fitted from Suc-AAPF-pNA activity in Model B detergent; IF relative to SEQ ID NO 3 comprising S173P + S175P + F180Y (second printed row for this variant)
[2] = biological target: TY145 (SEQ ID NO 3) variant S173P + S175P + F180Y + G182A; test: as above
[3] = biological target: TY145 (SEQ ID NO 3) variant S173P + S175P + I178F + F180Y; test: as above
[4] = biological target: Protease C (SEQ ID NO 6) (Lederbergia lenta (Bacillus lentus)) (UniProt P29600); test: Ki fitted from Suc-AAPF-pNA activity in Model B detergent; IF relative to SEQ ID NO 6 (the reference itself)
[5] = biological target: TY145 (SEQ ID NO 3) variant S111R; test: Ki fitted from Suc-AAPF-pNA activity at 8 inhibitor concentrations in Model B detergent; IF relative to SEQ ID NO 3
Sequence of TY145 (SEQ ID NO 3) (chain, as listed by the source limits assumed): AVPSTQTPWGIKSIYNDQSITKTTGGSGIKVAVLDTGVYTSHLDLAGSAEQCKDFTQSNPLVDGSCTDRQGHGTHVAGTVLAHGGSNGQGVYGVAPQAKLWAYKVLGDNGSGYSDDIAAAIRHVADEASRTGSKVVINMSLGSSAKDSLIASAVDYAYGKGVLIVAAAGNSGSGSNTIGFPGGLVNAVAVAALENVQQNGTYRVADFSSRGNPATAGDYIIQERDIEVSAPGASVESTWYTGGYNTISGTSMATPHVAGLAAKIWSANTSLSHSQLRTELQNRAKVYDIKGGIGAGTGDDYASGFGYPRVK

[6] = biological target: TY145 (SEQ ID NO 3) variant L184F; test: as above
Sequence of TY145 (SEQ ID NO 3) variant L184F (chain, as listed by the source L184F L184F limits assumed): as the sequence (chain, as listed by the source limits assumed) above, with L184F counted along it

[7] = biological target: TY145 (SEQ ID NO 3) variant Q70F; test: as above
[8] = biological target: TY145 (SEQ ID NO 3) variant I150N; test: as above
[9] = biological target: TY145 (SEQ ID NO 3) variant Y240R; test: as above
[10] = biological target: TY145 (SEQ ID NO 3) variant S114A; test: as above
[11] = biological target: TY145 (SEQ ID NO 3) variant I150S; test: as above
Sequence of TY145 (SEQ ID NO 3) variant I150S (chain, as listed by the source I150S I150S limits assumed): as the sequence (chain, as listed by the source limits assumed) above, with I150S counted along it

[12] = biological target: TY145 (SEQ ID NO 3) variant G182A; test: as above
Sequence of TY145 (SEQ ID NO 3) variant G182A (chain, as listed by the source G182A G182A limits assumed): as the sequence (chain, as listed by the source limits assumed) above, with G182A counted along it

[13] = biological target: TY145 (SEQ ID NO 3) variant Q70A; test: as above
[14] = biological target: TY145 (SEQ ID NO 3) variant Q70N; test: as above
[15] = biological target: TY145 (SEQ ID NO 3) variant L184Y; test: as above
Sequence of TY145 (SEQ ID NO 3) variant L184Y (chain, as listed by the source L184Y L184Y limits assumed): as the sequence (chain, as listed by the source limits assumed) above, with L184Y counted along it

TY145 (SEQ ID NO 3) = test: Ki fitted from Suc-AAPF-pNA activity at 8 inhibitor concentrations in Model B detergent; IF relative to SEQ ID NO 3 (the reference itself)
[16] = biological target: TY145 (SEQ ID NO 3) variant I150N + S173P + S175P + F180Y; test: Ki fitted from Suc-AAPF-pNA activity in Model B detergent; IF relative to SEQ ID NO 3 comprising S173P + S175P + F180Y
[17] = biological target: TY145 (SEQ ID NO 3) variant K146N + S173P + S175P + F180Y; test: as above
[18] = biological target: TY145 (SEQ ID NO 3) variant S173P + S175P + I178P + F180Y; test: as above
[19] = biological target: TY145 (SEQ ID NO 3) variant I150V + S173P + S175P + F180Y; test: as above
[20] = biological target: TY145 (SEQ ID NO 3) variant Q70F + S173P + S175P + F180Y; test: as above
Sequence of TY145 (SEQ ID NO 3) variant Q70F + S173P + S175P + F180Y (chain, as listed by the source Q70F S173P S175P F180Y Q70F S173P S175P F180Y limits assumed): as the sequence (chain, as listed by the source limits assumed) above, with Q70F, S173P, S175P, F180Y counted along it

[21] = biological target: TY145 (SEQ ID NO 3) variant S173P + S175P + F180Y + L184W; test: as above
[22] = biological target: TY145 (SEQ ID NO 3) variant K146T + S173P + S175P + F180Y; test: as above
[23] = biological target: TY145 (SEQ ID NO 3) variant I150A + S173P + S175P + F180Y; test: as above
[24] = biological target: TY145 (SEQ ID NO 3) variant S173P + S175P; test: Ki fitted from Suc-AAPF-pNA activity in Model B detergent; IF relative to SEQ ID NO 3 comprising S173P + S175P (the reference itself)

Sequence of TY145 (SEQ ID NO 3) variant S173P + S175P (chain, as listed by the source S173P S175P S173P S175P limits assumed): as the sequence (chain, as listed by the source limits assumed) above, with S173P, S175P counted along it

Inhibitor 1: Cbz-Gly-Ala-NHCH(CH2C6H4pOH)C(OH)(SO3Na)-H (peptide)
IF (binding constant improvement factor, relative Ki) [1]: 3.02 | IF (binding constant improvement factor, relative Ki) [2]: 2.01 | IF (binding constant improvement factor, relative Ki) [3]: 1.83 | IF (binding constant improvement factor, relative Ki) [4]: 1 | IF (binding constant improvement factor, relative Ki) [5]: 1.11 | IF (binding constant improvement factor, relative Ki) [6]: 2.27 | IF (binding constant improvement factor, relative Ki) [7]: 8.53 | IF (binding constant improvement factor, relative Ki) [8]: 3.68 | IF (binding constant improvement factor, relative Ki) [9]: 1.19 | IF (binding constant improvement factor, relative Ki) [10]: 2.14 | IF (binding constant improvement factor, relative Ki) [11]: 4.94 | IF (binding constant improvement factor, relative Ki) [12]: 1.86 | IF (binding constant improvement factor, relative Ki) [13]: 2.54 | IF (binding constant improvement factor, relative Ki) [14]: 3.33 | IF (binding constant improvement factor, relative Ki) [15]: 4.47 | IF (binding constant improvement factor, relative Ki) (TY145 (SEQ ID NO 3)): 1 | IF (binding constant improvement factor, relative Ki) [16]: 3.58 | IF (binding constant improvement factor, relative Ki) [17]: 1.36 | IF (binding constant improvement factor, relative Ki) [18]: 2.22 | IF (binding constant improvement factor, relative Ki) [19]: 1.8 | IF (binding constant improvement factor, relative Ki) [20]: 11.8 | IF (binding constant improvement factor, relative Ki) [21]: 2.23 | IF (binding constant improvement factor, relative Ki) [22]: 15.9 | IF (binding constant improvement factor, relative Ki) [23]: 2.52 | IF (binding constant improvement factor, relative Ki) [24]: 1
